Reference: publication PMC5628404 (2017)
Like-named read-outs stand apart in the source and are kept apart here.

Legend:
Experiment in all cases: SPR
[1] = target: T1, M1-linked di-ubiquitin chain (M1-Ub2) (human, UniProt P0CG48 1-76; P0CG48 1-76)
[2] = target: T2, K27-linked di-ubiquitin (K27-Ub2) (human, UniProt P0CG48 1-76, isopeptide linkage between the C-terminal glycine of one ubiquitin and K27 of the other)
[3] = target: T3, K63-linked di-ubiquitin (K63-Ub2) (human, UniProt P0CG48 1-76, isopeptide linkage between the C-terminal glycine of one ubiquitin and K63 of the other)
[4] = target: T1, M1-linked di-ubiquitin chain (M1-Ub2); remark: listed apart in the source
[5] = target: T2, K27-linked di-ubiquitin (K27-Ub2); remark: listed apart in the source
[6] = target: T3, K63-linked di-ubiquitin (K63-Ub2); remark: listed apart in the source
[7] = target: T2, K27-linked di-ubiquitin (K27-Ub2); remark: listed apart in the source
[8] = target: M1-linked tetra-ubiquitin chain (M1-Ub4) (human, UniProt P0CG48 1-76; P0CG48 1-76; P0CG48 1-76; P0CG48 1-76)
[9] = target: M1-linked tri-ubiquitin chain (M1-Ub3) (human, UniProt P0CG48 1-76; P0CG48 1-76; P0CG48 1-76)
[10] = target: T1, M1-linked di-ubiquitin chain (M1-Ub2); remark: listed apart in the source

B1: BRAP (1–592) (full-length) (natural protein)
chain: MSVSLVVIRLELAEHSPVPAGFGFSAAAGEMSDEEIKKTTLASAVACLEGKSPGEKVAIIHQHLGRREMTDVIIETMKSNPDELKTTVEERKSSEASPTAQRSKDHSKECINAAPDSPSKQLPDQISFFSGNPSVEIVHGIMHLYKTNKMTSLKEDVRRSAMLCILTVPAAMTSHDLMKFVAPFNEVIEQMKIIRDSTPNQYMVLIKFRAQADADSFYMTCNGRQFNSIEDDVCQLVYVERAEVLKSEDGASLPVMDLTELPKCTVCLERMDESVNGILTTLCNHSFHSQCLQRWDDTTCPVCRYCQTPEPVEENKCFECGVQENLWICLICGHIGCGRYVSRHAYKHFEETQHTYAMQLTNHRVWDYAGDNYVHRLVASKTDGKIVQYECEGDTCQEEKIDALQLEYSYLLTSQLESQRIYWENKIVRIEKDTAEEINNMKTKFKETIEKCDNLEHKLNDLLKEKQSVERKCTQLNTKVAKLTNELKEEQEMNKCLRANQVLLQNKLKEEERVLKETCDQKDLQITEIQEQLRDVMFYLETQQKINHLPAETRQEIQEGQINIAMASASSPASSGGSGKLPSRKGRSKRGK
Q: For B1, which koff [1] is on record?
A: 0.00264 s⁻¹

Q: What about the koff [2] of the same binder?
A: 0.00302 s⁻¹

Q: And the koff [3]?
A: 0.00395 s⁻¹

Q: And the Kd [4]?
A: 0.00519 µM

Q: What about the Kd [5] of the same binder?
A: 0.00627 µM

Q: What about the Kd [6] of the same binder?
A: 0.0113 µM

B2: BRAP (124–569) (RNF52 domain) (domain or fragment)
chain: DQISFFSGNPSVEIVHGIMHLYKTNKMTSLKEDVRRSAMLCILTVPAAMTSHDLMKFVAPFNEVIEQMKIIRDSTPNQYMVLIKFRAQADADSFYMTCNGRQFNSIEDDVCQLVYVERAEVLKSEDGASLPVMDLTELPKCTVCLERMDESVNGILTTLCNHSFHSQCLQRWDDTTCPVCRYCQTPEPVEENKCFECGVQENLWICLICGHIGCGRYVSRHAYKHFEETQHTYAMQLTNHRVWDYAGDNYVHRLVASKTDGKIVQYECEGDTCQEEKIDALQLEYSYLLTSQLESQRIYWENKIVRIEKDTAEEINNMKTKFKETIEKCDNLEHKLNDLLKEKQSVERKCTQLNTKVAKLTNELKEEQEMNKCLRANQVLLQNKLKEEERVLKETCDQKDLQITEIQEQLRDVMFYLETQQKINHLPAETRQEIQEGQINIAMASA
Q: Which results are given for B2?
A: Kd [7]: 0.171 µM; Kd [8]: 0.022 µM; Kd [9]: 0.0485 µM; Kd [10]: 0.0608 µM
